# Experimental data taken from the RNAGym collection of RNA variant scans (doi:10.1073/pnas.2313332121).
# Variants at the floor of the assay were thinned out.
# B1: TPR 5TU (parent)
# chain: GGAUCUUCUCGAUCUAACAAAAAAGACAAAUCUGCCACAAAGCUUGAGAGCAUCUUCGGAUGCAGAGGCGGCAGCCUUCGGUGGCGCGAUAGCGCCAACGUUCUCAACUAUGACACGCAAAACGCGUGCUCCGUUGAAUGGAGUUUAUCAUG
# Variants of: B1
# Experiment: polymerase ribozyme fitness, log enrichment relative to wild type (log ratio); higher = more active; in vitro selection for triplet polymerase activity
# Method in brief: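 Each subunit of a heterodimeric triplet polymerase ribozyme was mutagenized into a library by PCR, transcribed, and subjected to one round of in vitro selection, run in triplicate. Libraries were annealed with a biotinylated primer, the partner subunit and triplets, incubated frozen at −7 °C, and extended constructs were gel-excised, captured on streptavidin beads and recovered by RT-PCR. Input and output libraries were sequenced on Illumina, keeping genotypes with ≥10 input reads and ≥1 read per output. Fitness is log base 2 of genotype enrichment divided by wild-type enrichment, from inverse-variance-weighted replicate averages.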
row,Variant,polymerase ribozyme fitness (log ratio)
1,U77A A91G G94A,≤ -4.2
2,G58A G94A U135G U144C,-1.98
3,C57G A60C G81C C103A U111G A119C,≤ -4.2
4,G86U C116U,-1.03
5,U15G G25C A41C U55G C96A U139C G152U,≤ -4.2
6,U13A C85U G136U,-3.3
7,U90A C105G,≤ -4.2
8,A22U G83C G86U C108A C129U,≤ -4.2
9,C14A G141U,-0.0158
10,A40G U56A G86A,-3.13
11,A47G G94C,-0.418
12,A23U U56A,-3.49
13,U53A U151G,≤ -4.2
14,A16U C18G G94A,-2.97
15,A20C G88A,-3.56
16,G48C A52G,-1.29
17,A19G A26G,-3.57
18,A37C U55G G81A C87A A106C A107U G143U,≤ -4.2
19,U82A C85G,-3.05
20,U9C U33C C87A A122C,≤ -4.2
21,U56C,-0.389

row,Variant,polymerase ribozyme fitness (log ratio)
1,U7A C93U,-3.98
2,C8A G141A,-3.13
3,A40C C87G C105G,-4.19
4,A30C G46C A73G G80C G84A A91G,≤ -4.2
5,U15G U53A C95A,-1.48
6,C14A C43A C51U C54G C93A U145C A150C,≤ -4.2
7,A29U G46C G50C C95G C114G,≤ -4.2
8,C51U C57G G58C C69A A98U C105G C116U A150U,≤ -4.2
9,A40C A47U C85G A89G U148G,≤ -4.2
10,G92C C123U,-2.47
11,A26C A29G C51U U53G G68A A142C A150G G152A,≤ -4.2
12,G94C C132U,-1.26
13,C5U A20U G50C G81A G117A C132U,≤ -4.2
14,A40G C51A G83A C96U U101G,≤ -4.2
15,U53G C85G,-3.69
16,A49U C85U U148A,≤ -4.2
17,U55A G71A G80C,≤ -4.2
18,C103A A142U,-3.79
19,G48U C132A U139G,-3.31
20,U15A C87U,-0.632
21,A30U G83A C95A U135G,≤ -4.2

row,Variant,polymerase ribozyme fitness (log ratio)
1,A12C C51U C85A A150U,-0.931
2,G59U A64C G71A G117U,≤ -4.2
3,A22C A28U G88U,≤ -4.2
4,U44C U61C A64G C85U C87G C95A C96G C99A G136A,≤ -4.2
5,A20U G92U U104G,-1.82
6,C10U C96A C125A,-3.69
7,G11C G25C A41C U78A C99G,-4.09
8,A21U C32U A52G C85A,-4.08
9,G42A G48A U53A C76A C93G,≤ -4.2
10,C8A A40U G71U C85G,≤ -4.2
11,A17G A21U A49C G59C G74U C85G C116U U134A,≤ -4.2
12,C35A G94C G128A,≤ -4.2
13,G50A G68A C95A G140C,≤ -4.2
14,C8U C10U C32G C35G C95U G136A,≤ -4.2
15,C35U A41G G94A A98U G152U,-3.4
16,A16U A20C U31G G42C C87G G88C,≤ -4.2
17,G83A C129G,-3.81
18,A47C G50C A52C C85G C105A G141U,≤ -4.2
19,U6A C35U C95G G100A,≤ -4.2
20,A22U C87G U104A C105A,≤ -4.2
21,A29U U61A G74U C118A U130A,≤ -4.2

row,Variant,polymerase ribozyme fitness (log ratio)
1,G48C G62A,-3.59
2,A20U A24U G58C C96G A119G,≤ -4.2
3,A16U G83C C129G A137C U145C,≤ -4.2
4,A17U A22U A26G C36G G67C C95A,≤ -4.2
5,A16G C54A C116A G133C,-2.21
6,A3C C14G C103G A119G,≤ -4.2
7,G86A C87U,-3.65
8,U53A C57A,-0.577
9,A21C C51U G59C G140A A142U,≤ -4.2
10,A37C C123U,0.207
11,U9G G141U,-2.58
12,G46C G68A,-4.14
13,A3U C32U G59A G83C C129U A137C,≤ -4.2
14,U55C,0.0178
15,U31C A64G G84A A91U C99A U135C G141C,≤ -4.2
16,U55A A66U A98G A122U A150C,≤ -4.2
17,C85U U104A U144A,-0.68
18,C99A C123G U145G,0.0034
19,C99G G152A,-2.39
20,A22U G84A,-0.556
